This data set in a line: yeast display, Sf9 membrane polyspecificity reagent, FACS + sequencing; frameworks hold sequencing errors. Put shortly:
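Galactose induction of a Saccharomyces cerevisiae BJ5465 synthetic nanobody display library ran 36–48 hours. The cells were then stained for 1 hour at 4 °C with 10% biotinylated, detergent-solubilized Sf9 membrane reagent, pulled down on streptavidin microbeads and FACS-sorted into low and high (top ~1%) gates on expression and reagent-binding fluorescence. Labels for polyreactivity follow the gate of origin.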
Consider “QVHLVASGGGLVQAGGSLRLRCAASGFTIDTYAKGWYRQAPGKERDLVAGISWSGGSTYYADSVKGRFTISRDNAKNTVYLQRNSLNPEDTAVYYCAADYAGYPGRTRQRPGYDYWGQGTQVTVSS”, for which the “polyreactivity (PSR sort gate)” value is on record as “low polyreactivity”. As to “QVHLVDSAGGLVQAGGSLRLSCAASGNIFDYNGMGWYRQAPGKERELVAGINWSGGSTYYADSVKGRFTISRDNAKNTVYLQMNSLTPEDTAVYYCAAECVYDWYPFWRAIYTYDYWGQGTQVTVSS”, the “polyreactivity (PSR sort gate)” value is on record as “low polyreactivity”.

For the sequence “QVHLVDSCGALVQAGGSLSIRCAASGLTIYRYAKGWNRQEPRKETEVVAAISSADRTYYADSVKGRFTISRDNAKNTVYLQMNSLKPEDTAVYYCAARANYFGWTKSYYYWGQGTQVTVSS”, the “polyreactivity (PSR sort gate)” value is listed as “high polyreactivity”.

Regarding “QVHLVDSGAGLVQAGGSLRLSCAASGYTFYANAMGWYRQAPGKERELVAGINRSGSTYYADSVKGRFTISRDNAKNTVYLQMNSLKPEDTAVYYCATAWHRGVRGRTSGAFDYWGQGTQVTVSS”, the “polyreactivity (PSR sort gate)” value was “high polyreactivity”. With “QVHLVDSGGGLVQAGGILRLSCPATGSIFVYNTMGWYRQAPGKERELVADITSGTSTYYADSVKGRFTISRDNAKNTVYLQMNSLKPEDTAVYYSAAERWYKYYAYDYWGQGTQVTVSS”, the “polyreactivity (PSR sort gate)” value is “low polyreactivity”. In the case of “QVHLVDSGGGLVQAGGSLRLSCAASGRIYYVYAMGGYRQAPGQERELVAGITSTGGSTYYADSVKGRFTISRDNAKSTVYLQINRLNPVDTAVYYGATDYGYYDYWGQGTQVTVSS”, the “polyreactivity (PSR sort gate)” value is recorded as “low polyreactivity”.

For “QVHLVDSGGGLVQAGGSLRLSCAASGSTIKTYTKGWYRQAPGKERELVAGITSGVSTSYADSVKGRFTISRDNAKNTVYLQMNSLKPEDTAVYYCNADAYLVIYFYTVRDYGYDYWGQGTQVTVSS”, the “polyreactivity (PSR sort gate)” value is given as “low polyreactivity”. With “QVHLVDSGGGLVQAGGSLRLTCAASGITFYRYAMGWYRQAPWKERELVAAITGGGRTYYADSVKGRFTISRDNAKNTVYLQMNSLKPEDTAVYYCNVRTLHSVRGYDYWGQGTQVTVSS”, the “polyreactivity (PSR sort gate)” value is “high polyreactivity”. “QVHLVESAGCLVQAGGSLRLSCAASGSIIYLYAMGWYRQAPGKERELVAAISSGGSTNYADSVKGRFTISRDNAKNSVYLQMNSLKPEDTAVYYCAATLPGWYNEYDSWGQGTQVTVSS”: the “polyreactivity (PSR sort gate)” value is “low polyreactivity”. As to “QVHLVESDGGLVQAGGSLRLSCAASGIIFGYYVMGWYRQAPGKERELVASITSGGSTNYADSVKGRYTISRDNAKNTVYLQMNSLIPEYTAVYYCATDEPVGRYKHNYYWGQGTKVTVSS”, the “polyreactivity (PSR sort gate)” value is given as “low polyreactivity”. Under “QVHLVESGAGLVQAGGSLRLSCAASGSVFPVNAMGWYRQAPGKERELVAAISGSSGSTYYADSVKGRFTISRDNAKNTVYLQMNSLKPEDTAVYYCAKRGYGYGDGAYYYWGQGTQVTVSS” stands “low polyreactivity”; under “QVHLVESGGALVQAGASLRLSCAASGFTYGLYSMGWYRQAPGKERELVAVISSSGGSTYYADSVKGRFTISRDNAKNTVYLQMNRLKPEDTAVYYCAAEWLDYKFDVSYDYWGQCTQVTVSS”, “low polyreactivity”. With “QVHLVESGGALVQAGGSLRLSCAASGLTFVTNSMGWYRQAPGKERELVAAISLGGGSTYYADSVKGRFTISLDNAKNTVYLQMNSLKPEDTAVYYCAAVPGWVRQAVGWVLSLLDYCGQGTQVTVSS”, the “polyreactivity (PSR sort gate)” value is “low polyreactivity”. The value for “QVHLVESGGALVQAGGSLRLSCAASGRTFGIYAMGWYRQAPGKERELVATISWRGGSTYYADSVKGRFPISRDNAKNTVYLQMNSLKPEDTAVYYCAAGYYPYWGQGTQVTVSS” was “low polyreactivity”. Take “QVHLVESGGALVQAGGSLRLSCAASGSTFGGYAMGWYRPAPWKERELVAAITRSGGTTYYADSVKGRFTISRDNAKNTVYLQMNSLKPEDTAVYYCAAQGRRRPHQDAPYDYWGQGTQVTVSS”: the “polyreactivity (PSR sort gate)” value is listed as “high polyreactivity”. Take “QVHLVESGGCLVQAGCSLRLSCAASGRTFGWNVMGWYRQAPGTERELVAAISGSGGSTYYADSVKGRFTISRDNAKNTVYLQMNSLKPEDTAVYYCAALYGPGREYDYWGQGTQVTVSS”: the “polyreactivity (PSR sort gate)” value is “low polyreactivity”.

On to “QVHLVESGGCLVQAGGSLRLSCAASGFIFPWYAMGWYRQAPGKERELVAAISSSGGRTYYADSVKGRFTISRDNAKNTVYLQMNSLKPEDTGVYYCNVAYGLSQVYRYNYWGQGSQVTVSS”, for which the “polyreactivity (PSR sort gate)” value was “high polyreactivity”. For “QVHLVESGGCLVQAGGSLRLSSAASASIFYYNTMGWYIQAPGKERELVATNSSDGGTNYADSVKGRFTISRDNAKNTVYLQMNSLKPEDTAVYYCAAAVSPYSYWPGFDYWGQGTQVTVSS”, the “polyreactivity (PSR sort gate)” value was “low polyreactivity”. In the case of “QVHLVESGGGEVQAGGSLRLSCAASGRTFYNYAMGWYRQAPGKERELVASIRKNGGSTYYAYSVKGRFSISRDNAKNTVYLQMNSLKPEDTAVYYFAARYWGISRIFPSKYDYWGQGTQVTVSS”, the “polyreactivity (PSR sort gate)” value is “high polyreactivity”.

“QVHLVESGGGFVQAGGSLRLSCAASGSIFVINGMGWYRQAPGKERELVAAISSRGGDTYYADSVKGRFTISRDNAKNTVYLQMNSLKPEDTAVYYCNARYYTSYDYWGQGTKVTVSS”: the “polyreactivity (PSR sort gate)” value is reported as “low polyreactivity”. Consider “QVHLVESGGGIDQAGGSLRLSCAASGSTFTNNTMGWYRPAPGKERELVAGITKSGGSTYYADSVKGRFTISRDNAKKTVYLQMNSLKPEDTAVYYCATSTSRRYGSRHNYWGQGTQVTVSS”, for which the “polyreactivity (PSR sort gate)” value is “high polyreactivity”. Take “QVHLVESGGGIVQAGGSLRLSCAASGRTFWNYAMRWYRQAPGKERELVAVIRFSDGSTYYADSVKGRFTISRDNAKNTVYVQMNSLKPEDTAVYYCAAKGQRRWGSGFDYWGQGTQVTVSS”: the “polyreactivity (PSR sort gate)” value was “low polyreactivity”. Turning to “QVHLVESGGGIVQAGGSLRLSCAASGSIFNYYAMGWYRQAPGKETELVAAITWSGGRTYYADSVKGRFTISRDNAKNTVDLQMNSEKPEDTAVYYFATATVRFRVILFSPRMDDWGQGSQVTVSS”, the “polyreactivity (PSR sort gate)” value is given as “low polyreactivity”.

With “QVHLVESGGGLDQAGGSLRLSCAASGSTFSGYAMGWYRQAPGKERELVAAISSTGRTYYADSVKGRFTISRDNAKNTVYLQMNSLIPEDTALYYCAAKRYTVYGHKYEYWGQGTQVTVSS”, the “polyreactivity (PSR sort gate)” value was “high polyreactivity”. With “QVHLVESGGGLDQAGGSLRLSSASSGRIIVRNAMGCYRQAPGKERELVADISSSGGRTYYADSVKGRFTISRDNAKNTVYLQMNSLKPEDTAVYYCAASSSNNEYDYWGQGTQETVSS”, the “polyreactivity (PSR sort gate)” value is listed as “high polyreactivity”. Consider “QVHLVESGGGLVHAGGSLRLSCAASRSTFRNYAMGWYRQAHGKEREFVATINWIGGTTYYADSVKGRFTLSRDNAKNTVDLQMNSLKPVDTGVYYCAAQFDYYPWGGYWGQGTQVTVSS”, for which the “polyreactivity (PSR sort gate)” value is “high polyreactivity”. As for “QVHLVESGGGLVKAGGSLRLSCAASGGTIFVYMGWYRQDPGKETELVADISGSGGGTYYADSVKGRFTISRDNAMNTVYLQMNSLKPEDTAVYYCAAYYGHTYNGYYYWGQGTQVTVSS”, the “polyreactivity (PSR sort gate)” value is given as “low polyreactivity”. Regarding “QVHLVESGGGLVKAGGSLRLSCAASGNTFLWYAMGWYRQAPGKERELVAAITYSGGSTYYADSVKGRFTISRDNAKNTVYLQMNSLKPEYTPVYYCAAVGSYLAGYQFDYWGQGTQVNVSS”, the “polyreactivity (PSR sort gate)” value was “low polyreactivity”.

Turning to “QVHLVESGGGLVKAGGSLRLSCAASGRTFAQYVMGWYRQAPGKERELVAAITWSGGSSYYADSVKGRFTISRDNAKNTVYLQMNSLKPEDTALYYCAVKGAGGPKDDYWGQGTQVTVSS”, the “polyreactivity (PSR sort gate)” value was “high polyreactivity”. Regarding “QVHLVESGGGLVQAGCSLRLICAASGRIFTLYAMGWYRQAPGTEMEFVAAINRGGSTNYADSVKGRFTISRDNAKNTVYLQMNSLKPEVTAVYYCAAITTSRFRTYSYDYWGQGTKVTVSS”, the “polyreactivity (PSR sort gate)” value was “high polyreactivity”. For “QVHLVESGGGLVQAGCSLRVSCAASGRIFLYTGKGWSRQAAGKERELVAAISSGGSTYYADSVKGRFTISRDNAKNTVYLQMNSLKPEDTAVYYCAKEGHVVIFYIGQYELDFWGQGTQVTVSS”, the “polyreactivity (PSR sort gate)” value was “low polyreactivity”. With “QVHLVESGGGLVQAGGCLRLICAASGSIFVPYAMGWYRQAPVKERELVAAISRGGDTNYADSVKGRFTISRDNAKNTVYLQMKSLKPEDTAVYYCAKSGYGNRGFDYWGQGTQVSVSS”, the “polyreactivity (PSR sort gate)” value is on record as “low polyreactivity”. Regarding “QVHLVESGGGLVQAGGILRLSCAAYGSTFKSYAMGWYRLAPGKERELVAAISSSTGRTYYADSVKGRFTISLDYAKNTVYLQMNSMKPEDTAVYYCNAVHRYERDYCGQGTQVTVSS”, the “polyreactivity (PSR sort gate)” value was “high polyreactivity”.

Turning to “QVHLVESGGGLVQAGGRLRLSCAASGSIFFRYAMGWYRQAPGKERELVAAINSRGGRTYYADSVKGRFTISRDNAKNTVYLQMNSLKPEDTAVYYCAAKGYWAKGGKTYGGYDYWGQGTQVTGSS”, the “polyreactivity (PSR sort gate)” value is “high polyreactivity”. For “QVHLVESGGGLVQAGGSHRLSCAASGSISFIYAMGWYIQAPGKERELVAAITSSGGSTYYADSVKGRFTISRDNAQNTVYLQMNSLKPDDTAVYYCAAERWTSRHYSGNDYWGQGTQVTVSS”, the “polyreactivity (PSR sort gate)” value was “low polyreactivity”. Take “QVHLVESGGGLVQAGGSHSLSCAASGITFPLYVMGSYRQAPGKERELVAAISASGGSTYADSVKGRFTISRDNAKNTVYLQMNSLKPEDTAVYYCNAAVYVGYEYDYWGLGTQVTVSS”: the “polyreactivity (PSR sort gate)” value is “low polyreactivity”.

For the sequence “QVHLVESGGGLVQAGGSLGLSCAASGFTFTRNTMGWYRQAPGKERELVAAITRGGSTNYADSVKGRFTISRDNAKNTVYLQMNSLKPEDTAVYYCNKGRNVVLVRTADDYWGQGTQVTVSS”, the “polyreactivity (PSR sort gate)” value is given as “low polyreactivity”. Turning to “QVHLVESGGGLVQAGGSLLLSCAASGFTFRTNAMGWNRQAPGKERELVAVISRRGGSTYYADSVKGRFTISRDNAKNTVYIQMNSLKPEDTAVYYCNAGDGTVGRTYYRSYDYWGQGTQVTVSS”, the “polyreactivity (PSR sort gate)” value is reported as “high polyreactivity”.

As to “QVHLVESGGGLVQAGGSLPLSCAASGRTFIYNTMGWYRPAPGKERELVAAITRNGGSTNYADSVKGRFTISRDNAKNTVYLQMNSLKPEDTAVYYCAAKYIRFARSRDYWGQGTQVTVSS”, the “polyreactivity (PSR sort gate)” value is “high polyreactivity”.

For the sequence “QVHLVESGGGLVQAGGSLRLICAASGRILTFNAMGWYRQAPGKERELVAGINWSGDSTYYADSVKGRFTISRDNAKNTVYLQINSLKPEDTAFYYCTKYSYKAHFNYWGQGTQVTVSS”, the “polyreactivity (PSR sort gate)” value is listed as “low polyreactivity”. “QVHLVESGGGLVQAGGSLRLICAATGFIFGSYAMGWYRQAPGKERELVAAINWSGGNTYYADSVKGRFTISRDNEKNTVYLQMNSLKPEDTAVYYCAAQYVTSRFDYWGQGTQVTVSS”: the “polyreactivity (PSR sort gate)” value was “high polyreactivity”.
